Assay results taken from PMC10113545, “OsWRKY76 positively regulates drought stress via OsbHLH148-mediated jasmonate signaling in rice”.

T1: GST-OsWRKY76 (Oryza sativa, UniProt Q6EPZ2 1-327)
T1 sequence: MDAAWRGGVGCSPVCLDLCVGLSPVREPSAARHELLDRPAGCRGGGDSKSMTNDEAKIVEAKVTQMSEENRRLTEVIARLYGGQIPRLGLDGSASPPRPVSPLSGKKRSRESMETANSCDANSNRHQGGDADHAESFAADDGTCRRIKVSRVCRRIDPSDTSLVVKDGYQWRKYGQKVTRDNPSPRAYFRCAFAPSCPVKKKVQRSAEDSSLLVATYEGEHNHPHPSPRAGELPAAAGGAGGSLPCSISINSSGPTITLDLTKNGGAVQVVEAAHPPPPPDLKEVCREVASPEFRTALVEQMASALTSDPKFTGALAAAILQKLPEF

B1: OsDREB1E unlabeled competitor probe (dsDNA)
DNA 1: GCACGGGTAGTTTTGACCTATAGGAGTGTA
DNA 2: TACACTCCTATAGGTCAAAACTACCCGTGC
B2: OsDREB1E probe (6-FAM) (dsDNA)
DNA 1: B1 DNA 1
DNA 2: B1 DNA 2

Columns and labels:
GST-OsWRKY76 [1] = target: T1, GST-OsWRKY76; experiment: competition; 10x and 50x molar excess of unlabeled probe reduced the N1 shift; EMSA as in Gao et al. 2019; buffer, salt, pH and temperature not stated; conditions: protein: recombinant; tags: N-terminal GST (pGEX-4T-3); blunt
GST-OsWRKY76 [2] = target: T1, GST-OsWRKY76; experiment: EMSA; EMSA as in Gao et al. 2019; buffer, salt, pH and temperature not stated; conditions: protein: recombinant; tags: N-terminal GST (pGEX-4T-3); label: 6-FAM 5' end (strand(s) not specified); blunt

| Binder | binding result (GST-OsWRKY76 [1]) | binding result (GST-OsWRKY76 [2]) |
| --- | --- | --- |
| B1 | binds | – |
| B2 | – | binds |
